Experimental data published in publication PMC10504261, “Metabolism of plant-derived toxins from its insect host increases the success of the entomopathogenic fungus Beauveria bassiana” (The ISME Journal, 2023).

Assays:
S=C=NCCc1ccccc1 = test: purified protein; details: 4 mM GSH (saturating); ITC 25-800 µM; n = 4
C=CCN=C=S = test: purified protein; details: 4 mM GSH (saturating); ITC 25-800 µM; n = 4
BbGSTUre2p2 = molecular target: T1, BbGSTUre2p2 (Beauveria bassiana, UniProt J5JP22); test: GSH conjugation, absorbance at […] nm, Michaelis-Menten fit; details: read-out: KM / μM; 4 mM GSH (saturating); ITC 25-800 µM; n = 4
T1 construct: gene BBA_04201
T1 sequence (J5JP22 entry or part of it): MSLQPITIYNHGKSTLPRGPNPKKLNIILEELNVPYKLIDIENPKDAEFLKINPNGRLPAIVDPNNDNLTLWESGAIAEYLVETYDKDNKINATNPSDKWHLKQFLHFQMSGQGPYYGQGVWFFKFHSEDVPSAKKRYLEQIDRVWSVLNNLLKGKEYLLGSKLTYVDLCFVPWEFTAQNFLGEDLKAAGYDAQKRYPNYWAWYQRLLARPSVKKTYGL

BbGSTN21 = molecular target: T2, BbGSTN21 (Beauveria bassiana, UniProt J5JKP3); test: as above; details: read-out: KM / μM; 4 mM GSH (saturating); ITC 25-800 µM; n = 4
T2 construct: gene BBA_07410
T2 sequence (J5JKP3 entry or part of it): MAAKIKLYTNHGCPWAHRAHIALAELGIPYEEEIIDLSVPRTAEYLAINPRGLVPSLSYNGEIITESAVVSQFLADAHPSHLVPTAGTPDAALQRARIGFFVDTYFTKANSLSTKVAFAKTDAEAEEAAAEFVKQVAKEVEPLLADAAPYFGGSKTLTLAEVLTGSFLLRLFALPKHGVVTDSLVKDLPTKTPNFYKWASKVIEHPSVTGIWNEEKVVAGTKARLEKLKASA

BbGSTUre2p3 = molecular target: T3, BbGSTUre2p3 (Beauveria bassiana, UniProt J4KPJ4); test: as above; details: read-out: KM / μM; 4 mM GSH (saturating); ITC 25-800 µM; n = 4
T3 construct: gene BBA_03339
T3 sequence (J4KPJ4 entry or part of it): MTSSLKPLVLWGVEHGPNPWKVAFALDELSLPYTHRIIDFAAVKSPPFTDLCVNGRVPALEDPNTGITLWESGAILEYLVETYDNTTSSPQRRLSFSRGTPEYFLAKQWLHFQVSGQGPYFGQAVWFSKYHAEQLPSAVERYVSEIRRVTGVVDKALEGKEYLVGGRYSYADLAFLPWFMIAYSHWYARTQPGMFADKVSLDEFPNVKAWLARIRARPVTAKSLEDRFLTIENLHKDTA

BbGSTe1 = molecular target: T4, BbGSTe1 (Beauveria bassiana, UniProt J4UX82); test: as above; details: read-out: KM / μM; 4 mM GSH (saturating); ITC 25-800 µM; n = 4
T4 construct: gene BBA_00672
T4 sequence (J4UX82 entry or part of it): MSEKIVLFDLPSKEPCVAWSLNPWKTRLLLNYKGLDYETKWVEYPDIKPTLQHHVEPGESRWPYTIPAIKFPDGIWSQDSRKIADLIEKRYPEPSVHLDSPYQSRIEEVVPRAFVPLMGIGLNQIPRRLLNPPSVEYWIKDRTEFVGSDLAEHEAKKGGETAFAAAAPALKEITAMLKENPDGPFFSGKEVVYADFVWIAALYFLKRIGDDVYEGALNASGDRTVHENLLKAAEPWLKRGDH

| Compound | Km (S=C=NCCc1ccccc1) [µM] | Vmax (S=C=NCCc1ccccc1) [µmol/min/mg] | kcat (S=C=NCCc1ccccc1) [s⁻¹] | kcat/Km (S=C=NCCc1ccccc1) [M⁻¹ s⁻¹] | Km (C=CCN=C=S) [µM] | Vmax (C=CCN=C=S) [µmol/min/mg] | kcat (C=CCN=C=S) [s⁻¹] | kcat/Km (C=CCN=C=S) [M⁻¹ s⁻¹] | Km (BbGSTUre2p2) [µM] | Km (BbGSTN21) [µM] | Km (BbGSTUre2p3) [µM] | Km (BbGSTe1) [µM] |
| --- | --- | --- | --- | --- | --- | --- | --- | --- | --- | --- | --- | --- |
| BbGSTN21 (Beauveria bassiana ARSEF 2860) | 1191.89 ± 1464.92 | 0.97 | 0.41 ± 0.36 | 340 ± 300 | 448.48 ± 226.89 | 2.39 | 1 ± 0.24 | 2230 ± 540 | – | – | – | – |
| C[S+]([O-])CCCCN=C=S (stereo not drawn) [1a, 4MSOB-ITC] | – | – | – | – | – | – | – | – | 1210 ± 890 | 1130 ± 578 | 747 ± 338 | 1220 ± 839 |
| BbGSTe1 (Beauveria bassiana ARSEF 2860) | 860.76 ± 561.56 | 1.9 | 0.88 ± 0.35 | 1020 ± 410 | 312.75 ± 100.06 | 0.41 | 0.19 ± 0.02 | 590 ± 80 | – | – | – | – |
| BbGSTUre2p2 (Beauveria bassiana ARSEF 2860) | 223.06 ± 86.81 | 0.15 | 0.06 ± 0.01 | 280 ± 50 | 487.23 ± 266.11 | 0.44 | 0.18 ± 0.05 | 370 ± 100 | – | – | – | – |
| BbGSTUre2p3 (Beauveria bassiana ARSEF 2860) | 71.76 ± 38.91 | 0.08 | 0.04 ± 0.01 | 490 ± 80 | 831.61 ± 572.57 | 0.59 | 0.27 ± 0.11 | 320 ± 130 | – | – | – | – |
